The target of test [1] is Alpha fetoprotein (UniProt P02771). Briefly: multiplex sandwich, S10473 capture beads; AFP 31 ng/mL, no wash.
Test [2] addresses Human chorionic gonadotropin (human) (UniProt P01215). In words: MAB602 capture beads, flow cytometry; hCG 1.0 ng/mL, anti-AFP probe. In general terms: In flow cytometry, cells or beads pass a laser one at a time.
Test [3] has the same target. Briefly: anti-AFP capture beads, flow cytometry; hCG 10.0 ng/mL, anti-AFP probe.
Test [4] addresses Alpha fetoprotein (UniProt P02771). Briefly: multiplex no-wash sandwich, S10473 beads; serum Level 1, AFP 10.7 U/mL.
Test [5] concerns the target Neutravidin (deglycosylated avidin) (UniProt P02701). In words: multiplex, Neutravidin bead 40/70 without peptide, flow cytometry.
Test [6] has the same target. In words: multiplex, Neutravidin bead 70/50 without peptide, flow cytometry.
Test [7] has the same target. Briefly: single-analyte, Neutravidin bead 40/60 without peptide, flow cytometry.
The target is the same in test [8]. In words: single-analyte, Neutravidin bead 70/70 without peptide, flow cytometry.
For test [9], the target named is Peptide 1 …-biotin. Briefly: multiplex 9-peptide bead set, flow cytometry; MAB 384-Bodipy 15.5 ug/mL.
The target in test [10] is Peptide 2 …-biotin. The test is described as above.
For test [11], the target named is Peptide 3 …-biotin. Described as above.
The target of test [12] is Peptide 4 …-biotin. Described as above.
For test [13], the target named is Peptide 5 …-biotin (human). The description is as above.
The target in test [14] is Peptide 6 …-biotin. The test is described as above.
In test [15] the target is Peptide 7 …-biotin. The description is as above.
For test [16], the target named is Peptide 8 …-biotin. The description is as above.
Test [17] addresses Peptide 9 …-biotin. The test is described as above.
Test [18] has as its target Peptide 1 …-biotin. In words: multiplex peptide beads, flow cytometry; antibody pre-mixed with soluble HYGSLPQK 10 ug/mL (competitor m18).
Test [19] concerns the target Peptide 2 …-biotin. The test is described as above.
For test [20], the target named is Peptide 3 …-biotin. The description is as above.
The target of test [21] is Peptide 4 …-biotin. Described as above.
For test [22], the target named is Peptide 5 …-biotin (human). Described as above.
Test [23] concerns the target Peptide 6 …-biotin. Described as above.
In test [24] the target is Peptide 7 …-biotin. The test is described as above.
The target of test [25] is Peptide 8 …-biotin. The test is described as above.
Test [26] concerns the target Peptide 9 …-biotin. The description is as above.
Test [27] concerns the target Human chorionic gonadotropin (human) (UniProt P01215). Briefly: multiplex sandwich, MAB602 capture beads; hCG 2 ng/mL, washed.
Test [28] shares this target. Briefly: multiplex sandwich, MAB602 capture beads; hCG 8 ng/mL, no wash.
The target is the same in test [29]. In words: bead sandwich, flow cytometry; capture A3 beads, hCG 20.0 ug/mL.
For test [30] the target is unchanged. In words: multiplex sandwich, MAB602 capture beads; hCG 16 ng/mL, no wash.
The target is the same in test [31]. Briefly: multiplex sandwich, MAB602 capture beads; hCG 31 ng/mL, no wash.
Test [32] has the same target. Briefly: multiplex sandwich, MAB602 capture beads; hCG 2000 ng/mL, no wash.
The target of test [33] is Alpha fetoprotein (UniProt P02771). In words: MAB602 capture beads, flow cytometry; AFP 0.0 ng/mL, anti-hCG probe.
Test [34] has the same target. In words: MAB602 capture beads, flow cytometry; AFP 0.1 ng/mL, anti-hCG probe.
Test [35] addresses Human chorionic gonadotropin (human) (UniProt P01215). In words: MAB602 capture beads, flow cytometry; hCG 0.1 ng/mL, anti-hCG probe.
For test [36] the target is unchanged. Briefly: MAB602 capture beads, flow cytometry; hCG 1.0 ng/mL, anti-hCG probe.
Test [37] shares this target. Briefly: MAB602 capture beads, flow cytometry; hCG 10.0 ng/mL, anti-hCG probe.
For test [38] the target is unchanged. In words: MAB602 capture beads, flow cytometry; hCG 100.0 ng/mL, anti-hCG probe.
Test [39] has as its target Alpha fetoprotein (UniProt P02771). In words: MAB602 capture beads, flow cytometry; AFP 1000.0 ng/mL, anti-hCG probe.
The target in test [40] is Human chorionic gonadotropin (human) (UniProt P01215). In words: multiplex no-wash sandwich, MAB602 beads; serum Level 1, hCG 22.8 mU/mL.
The target of test [41] is Alpha fetoprotein (UniProt P02771). Briefly: anti-AFP capture beads, flow cytometry; AFP 1000.0 ng/mL, anti-hCG probe.

“And” between values parts separate entries of the source, which are not always exact repeats. Identical values can stand only once.

UniProt P02701, sequence (P02701 25-152 limits assumed): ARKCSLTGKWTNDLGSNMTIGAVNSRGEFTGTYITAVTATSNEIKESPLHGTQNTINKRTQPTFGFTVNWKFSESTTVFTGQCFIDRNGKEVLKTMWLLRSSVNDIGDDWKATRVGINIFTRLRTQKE
UniProt P01215, sequence (P01215 25-116, chain 1 of 2, other chains not shown): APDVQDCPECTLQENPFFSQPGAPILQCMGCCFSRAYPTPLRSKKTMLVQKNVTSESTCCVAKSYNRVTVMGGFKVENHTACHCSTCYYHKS
UniProt P02771, sequence (P02771 19-609 limits assumed): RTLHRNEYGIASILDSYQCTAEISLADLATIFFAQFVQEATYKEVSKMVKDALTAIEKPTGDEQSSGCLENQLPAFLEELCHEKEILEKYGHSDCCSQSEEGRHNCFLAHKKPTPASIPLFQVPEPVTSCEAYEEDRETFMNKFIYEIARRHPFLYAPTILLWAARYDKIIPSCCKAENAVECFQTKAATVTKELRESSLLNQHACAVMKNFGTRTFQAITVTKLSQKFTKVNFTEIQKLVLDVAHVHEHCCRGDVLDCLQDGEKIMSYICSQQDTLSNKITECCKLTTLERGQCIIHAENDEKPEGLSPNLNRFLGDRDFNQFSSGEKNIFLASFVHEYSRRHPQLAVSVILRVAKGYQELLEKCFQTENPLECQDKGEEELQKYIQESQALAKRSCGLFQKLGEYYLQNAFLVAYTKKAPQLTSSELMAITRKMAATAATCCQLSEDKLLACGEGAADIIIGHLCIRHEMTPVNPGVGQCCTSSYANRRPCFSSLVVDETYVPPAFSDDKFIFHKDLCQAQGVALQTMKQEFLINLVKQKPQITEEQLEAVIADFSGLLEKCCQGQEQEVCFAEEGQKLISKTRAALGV

For the substance “M20077 affinity purified polyclonal anti-AFP antibody, Bodipy FL-CASE labeled”, the figures for the MIF of Fm (in the test with Alpha fetoprotein [1]; in test [2]; in test [3]) were 639, 48 and 45, respectively. Further, the MIF AVG in the test with Alpha fetoprotein [4] came to 78. The MIF of FL1 in the test with Alpha fetoprotein [4] was 74 and 83 and 77.

Turning to MAB 384, Bodipy FL-X labeled (antibody), the MIF of Fm in [5] amounted to 34; in [6] it was 28; in test [7], 54; in test [8], 66; in the test with Peptide 1 …-biotin [9], 28; in the test with Peptide 2 …-biotin [10], 36. Moreover, the MIF of Fm amounted to 36 in the test with Peptide 3 …-biotin [11]; 35 with Peptide 4 …-biotin [12]; 1350 in [13]; 67 with Peptide 6 …-biotin [14]; 35 in the test with Peptide 7 …-biotin [15]; 32 with Peptide 8 …-biotin [16]. For the same substance, the MIF of Fm with Peptide 9 …-biotin [17] is 29; in the test with Peptide 1 …-biotin [18], 4; in the test with Peptide 2 …-biotin [19], 7; with Peptide 3 …-biotin [20], 12; in the test with Peptide 4 …-biotin [21], 13; in test [22], 53. Also, the MIF of Fm with Peptide 6 …-biotin [23] was 15; with Peptide 7 …-biotin [24] it was 11; with Peptide 8 …-biotin [25], 9; in the test with Peptide 9 …-biotin [26], 17.

For “AB633 affinity purified polyclonal anti-hCG antibody, Bodipy FL-CASE labeled”, the MIF of Fm is 547 in [27]; 1760 in test [28]; 3150 in test [29]; 2440 in test [30]; 2510 in test [31]; 491 in [32]. Further, the MIF of Fm in the test with Alpha fetoprotein [33] amounted to 71; with Alpha fetoprotein [34], 52; in test [35] it was 55; in test [36], 104; in test [37] it was 530; in [38] it was 761. Also, the MIF of Fm turned out to be 53 in the test with Alpha fetoprotein [39] and 57 with Alpha fetoprotein [41]. In test [40], this substance came in with an MIF AVG of 25.7. Moreover, the MIF of FL1 in [40] is 23 and 27.
